Measured values from article PMC2635961.

Molecular target: each recombinant exocyst subunit
Assay: pull-down; MBP or MBP-tagged proteins immobilised on amylose resin; equimolar purified Sec10(145–827) (1 µM) added; 10 mM HEPES pH 7, 100 mM NaCl, 0.1% NP-40, 1 mM DTT; 1 h at 4°C; three washes; Western blot with α-His5 and α-MBP

B1: Sec10(145–827) (domain or fragment)
chain: GDKLETAIKKKQNYIQSVELIRRYNDFYSMGKSDIVEQLRLSKNWKLNLKSVKLMKNLLILSSKLETSSIPKTINTKLVIEKYSEMMENELLENFNSAYRENNFTKLNEIAIILNNFNGGVNVIQSFINQHDYFIDTKQIDLENEFENVFIKNVKFKEQLIDFENHSVIIETSMQNLINDVETVIKNESKIVKRVFEEKATHVIQLFIQRVFAQKIEPRFEVLLRNSLSISNLAYVRILHGLFTLFGKFTKSLIDYFQLLEIDDSNQILSTTLEQCFADLFSHYLYDRSKYFGIEKRSLEAILVDMTSKFTVNYDKEINKRVLLDKYKEKLSTNVDAFMHSPRGNTHSRQDSTSRSKLSQFNSFLKTHLDKDHLSLNRTNTLSDSFNNSSSSTQYDVANNSSSLVNSSFTASDIDNSPNSPANYSLNDVDSMLKCVVESTARVMELIPNKAHLYILEILKIMFLGIVDSYMEIALEVAYWKICKVDINKTAGVVNLNFLKFISMSTEILDLLSISIKSIFLPLLNNSPEIKAQIIEMTNSQIQKMEILINIILQETITVISTKFSAILCKQKKKDFVPKSQELLDQDTLPAIEIVNILNLIFEQSSKFLKGKNLQTFLTLIGEELYGLLLSHYSHFQVNSIGGVVVTKDIIGYQTAIEDWGVASLIDKFATLRELANLFTVQP
**Q.** B1 was tested. Which percent bound did it give?
**A.** The percent bound was 10 to 20%.
